The record followed here is patent publication US20250082753A1 (Hoffmann-La Roche, published 2025).

The assay has as its target T1, CH2-CH3 AAA P329R CAR.
T1 construct: Expressed on transduced primary human T cells (CD4+:CD8+ 1:1); also called CH2 CH3 AAA PR CAR
The assay is described as follows: flow cytometry double staining of CH2-CH3 AAA P329R CAR T cells with 50 nM anti-PG VH3xVL1 huIgG-AF647 and 100 nM anti-AAA x FolR1 1+1 TCB Avi Biotin + BV421 streptavidin. As for the experimental part:
In order to assess if the P329G mutation and AAA mutations can be bound by the respective molecules simultaneously, a second staining was performed as follows (FIG. 12A). The cells were incubated with LIVE/DEAD™ Fixable Near-IR Dead (Invitrogen, #L34976) dye (1:1000 in DPBS) and 50 nM of anti-PG VH3×VL1 huIgG-AF647 for 20 minutes at 4° C.
Then the cells were washed twice with FACS-buffer. In a second step the cells were incubated with 100 nM of anti-AAA×FolR1-Avi-Biotin 1+1 TCB and 500 nM Fc_P329LALA (20 minutes at 4° C.). Fc_P329GLALA served as blocking molecule, to prevent binding of the anti-PG VH3×VL1 huIgG-AF647 to the PG mutation in the anti-AAA×FolR1-Avi-Biotin 1+1 TCB. After the incubation, the cells were washed twice with FACS-buffer. In a third step the cells were resuspended in BV421 Streptavidin (Biolegend, #405225) and 500 nM Fc_P329LALA (20 min, 4° C.). After another two washing steps, the cells were fixed (BD CytoFix, #554655) and analyzed on the FACS.
Background: In flow cytometry, cells or beads pass a laser one at a time.

T1 sequence (chain, as listed by the source P329R P329R limits assumed): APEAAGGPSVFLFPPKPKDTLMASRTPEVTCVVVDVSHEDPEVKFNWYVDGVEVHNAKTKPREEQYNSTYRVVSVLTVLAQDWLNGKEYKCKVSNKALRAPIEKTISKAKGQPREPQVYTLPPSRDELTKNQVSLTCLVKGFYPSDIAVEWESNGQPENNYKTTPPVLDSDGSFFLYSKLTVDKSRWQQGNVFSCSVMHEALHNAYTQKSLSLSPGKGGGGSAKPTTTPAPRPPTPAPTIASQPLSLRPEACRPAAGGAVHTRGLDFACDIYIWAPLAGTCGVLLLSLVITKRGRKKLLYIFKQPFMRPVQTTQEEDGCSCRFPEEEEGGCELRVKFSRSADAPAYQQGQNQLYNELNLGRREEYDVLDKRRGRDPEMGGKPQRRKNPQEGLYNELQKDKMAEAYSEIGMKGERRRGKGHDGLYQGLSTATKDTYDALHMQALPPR

B1: Anti-P329G (VH3VL1) huIgG1 (antibody, V domains shown)
VH: EVQLVESGGGLVQPGGSLRLSCAASGFTFSRYWMNWVRQAPGKGLEWVGEITPDSSTINYAPSLKGRFTISRDNAKNSLYLQMNSLRAEDTAVYYCARPYDYGAWFASWGQGTLVTVSS
VL: QAVVTQEPSLTVSPGGTVTLTCRSSTGAVTTSNYANWVQEKPDHLFTGLIGGTNKRAPGTPARFSGSLLGGKAALTLSGAQPEDEAEYYCALWYSNHWVFGGGTKLTVL
notes: huIgG1; also called P1AE9957; anti-P329G VH3×VL1 AF647 labeled IgG
Turning to B1, the binding result was “no binding (tested: 50 nM)”.
